Numbering of substitutions follows the chain as printed. Non-standard residues stand in square brackets, D forms with d. No end group written: not given here. Aib = CC(C)(N)C(=O)O
T1: human GIP receptor (human, UniProt P48546 22-466)
T1 sequence (looked up): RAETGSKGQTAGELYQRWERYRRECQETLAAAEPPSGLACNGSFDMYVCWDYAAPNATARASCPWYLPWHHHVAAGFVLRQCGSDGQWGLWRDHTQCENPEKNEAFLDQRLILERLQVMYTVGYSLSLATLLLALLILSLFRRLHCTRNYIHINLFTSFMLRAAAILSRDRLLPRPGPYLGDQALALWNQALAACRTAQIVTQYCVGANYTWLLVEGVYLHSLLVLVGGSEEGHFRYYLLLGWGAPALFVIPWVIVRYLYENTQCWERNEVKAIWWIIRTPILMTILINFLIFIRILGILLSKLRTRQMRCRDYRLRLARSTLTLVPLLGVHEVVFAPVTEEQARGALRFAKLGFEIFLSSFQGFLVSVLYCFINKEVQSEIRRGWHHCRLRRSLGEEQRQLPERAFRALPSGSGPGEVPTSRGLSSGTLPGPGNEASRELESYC

T2: human neuropeptide Y2 receptor (human, UniProt P49146 1-381)
T2 sequence (looked up): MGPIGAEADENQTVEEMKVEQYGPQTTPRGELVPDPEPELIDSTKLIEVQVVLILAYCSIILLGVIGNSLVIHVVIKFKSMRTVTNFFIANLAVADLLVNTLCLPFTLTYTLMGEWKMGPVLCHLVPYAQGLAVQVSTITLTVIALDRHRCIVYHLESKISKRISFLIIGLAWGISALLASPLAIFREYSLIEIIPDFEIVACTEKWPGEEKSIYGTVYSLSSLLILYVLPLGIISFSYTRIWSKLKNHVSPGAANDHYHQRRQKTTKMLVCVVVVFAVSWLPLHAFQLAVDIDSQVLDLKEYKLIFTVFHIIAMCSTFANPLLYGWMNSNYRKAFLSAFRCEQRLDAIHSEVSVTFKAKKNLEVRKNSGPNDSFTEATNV

B1: Compound 120 (peptide)
peptide: YXEGTFTSDYSIXLEKQAQXAFVEWLIKGGPSSPASLRHYYNWLTRQRY
modifications: Aib at 2, 13, 20; K28 side chain: C20DA-gGlu-gGlu-gGlu-gGlu-gGlu-OEG-OEG; C-terminal NH2
B2: Compound 121 (peptide)
peptide: B1 peptide with K16S, P34G
modifications: Aib at 2, 13, 20; K28 side chain: C20DA-gGlu-gGlu-gGlu-gGlu-gGlu-gGlu-eLys; C-terminal NH2
B3: Compound 122 (peptide)
peptide: B1 peptide with S33E, A35E
modifications: Aib at 2, 13, 20; K28 side chain: C20DA-gGlu-gGlu-gGlu-gGlu-gGlu-gGlu-eLys; C-terminal NH2
B4: Compound 123 (peptide)
peptide: B1 peptide with P31Q, P34G
modifications: Aib at 2, 13, 20; K28 side chain: C20DA-gGlu-gGlu-gGlu-gGlu-gGlu-gGlu-eLys; C-terminal NH2
B5: Compound 124 (peptide)
peptide: B1 peptide with K16Q, P34G
modifications: Aib at 2, 13, 20; K28 side chain: C20DA-gGlu-gGlu-gGlu-gGlu-Glu-gGlu-eLys; C-terminal NH2
B6: Compound 125 (peptide)
peptide: B1 peptide with E24Q, S33E, P34G
modifications: Aib at 2, 13, 20; NMeR at 48; K28 side chain: C20DA-gGlu-gGlu-gGlu-gGlu-gGlu-gGlu-eLys; C-terminal NH2
B7: Compound 126 (peptide)
peptide: Y[Aib]EGTFTSDYSI[Aib]LEKQAQ[Aib]AFVEWLIKGGPSSYASLRHYYNWLTRQRY-NH2
modifications: not fully specified (residue 28)
B8: Compound 127 (peptide)
peptide: B1 peptide with P34G, A35E
modifications: Aib at 2, 13, 20; K28 side chain: C20DA-gGlu-gGlu-gGlu-gGlu-gGlu-gGlu-eLys; C-terminal NH2
B9: Compound 128 (peptide)
peptide: B1 peptide with E15D, P34G
modifications: Aib at 2, 13, 20; K28 side chain: C20DA-gGlu-gGlu-gGlu-gGlu-gGlu-gGlu-eLys; C-terminal NH2
B10: Compound 129 (peptide)
peptide: B1 peptide with P34G, R38X
modifications: Aib at 2, 13, 20, 38; K28 side chain: C20DA-gGlu-gGlu-gGlu-gGlu-gGlu-gGlu-eLys; C-terminal NH2
B11: Compound 130 (peptide)
peptide: B1 peptide with V23I, P34G
modifications: Aib at 2, 13, 20; K28 side chain: C20DA-gGlu-gGlu-gGlu-Glu-gGlu-gGlu-eLys; C-terminal NH2

Assays:
Test in all cases: cell-based or functional assay
[1] = target: human GLP-1 receptor (human, UniProt P43220 24-463)
[2] = target: T1, human GIP receptor
[3] = target: T2, human neuropeptide Y2 receptor

Binder	EC50 CreLuc hGLP1R 0.5% hP [1] [nM]	EC50 CreLuc hGLP1R 100% hP [1] [nM]	EC50 CreLuc hGIPR 0.5% hP [2] [nM]	EC50 CreLuc hGIPR 100% hP [2] [nM]	EC50 CreLuc hNPY2R 0.5% hP [3] [nM]	EC50 CreLuc hNPY2R 100% hP [3] [nM]
B1	0.11	4.65	0.34	1.44	10.7	39.2
B2	0.18	7.09	0.65	7.29	23.8	88.9
B3	0.22	4.97	0.08	1.53	26.3	78.9
B4	0.24	7.88	0.42	4.11	6.12	31.3
B5	0.11	1.95	0.26	0.89	16.2	39.9
B6	0.23	2.85	0.28	1.72	30.9	99.3
B7	0.18	3.36	0.1	1.27	15.1	41.8
B8	0.04	1.6	0.05	0.84	13.2	66.3
B9	0.4	3.7	0.11	0.9	24.8	51.9
B10	0.04	0.85	0.06	0.5	30.9	87.6
B11	0.13	1.18	0.11	0.98	18	54.8
